Reference: patent US20240209076A1 (KODIAK SCIENCES, published 2024)

Target: T1, human IL-6 (human, UniProt P05231 30-212)
T1 construct: IL-6 flowed over captured antibodies
Assay: SPR Biacore, supernatant Ab on Protein A chip, 37 C

T1 sequence (P05231 30-212 limits assumed): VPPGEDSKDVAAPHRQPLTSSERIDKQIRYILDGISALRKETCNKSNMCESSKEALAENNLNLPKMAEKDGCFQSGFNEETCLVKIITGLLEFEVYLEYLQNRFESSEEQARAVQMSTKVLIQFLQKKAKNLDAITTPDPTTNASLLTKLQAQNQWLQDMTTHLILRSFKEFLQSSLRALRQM

Kd	koff	kon	Binder
0.246 nM	0.000419 s⁻¹	1.7e+06 M⁻¹ s⁻¹	anti-IL-6 antibody, heavy chain T63P, G66D / light chain M32L, M50D, N52S, M88Q (antibody, IgG1, V domains shown, Full IgG1 (Expi293); VL = variant III) VH: EVQLVESGGGLVQPGGSLRLSCAASGFTFSPFAMSWVRQAPGKGLEWVAKISPGGSWTYYSDPVTDRFTFSLDTSKSTAYLQMNSLRAEDTAVYYCARQLWGYYALDIWGQGTLVTVSS VL: DIQLTQSPSSLSASVGDRVTITCSASISVSYLYWYQQKPGKAPKLLIYDDSSLASGVPSRFSGSGSGTDFTLTISSLQPEDFATYYCQQWSGYPYTFGQGTKVEIK
0.278 nM	0.000499 s⁻¹	1.8e+06 M⁻¹ s⁻¹	anti-IL-6 antibody, heavy chain T63S, G66D / light chain M32L, M50D, N52S, M88Q (antibody, IgG1, V domains shown, Full IgG1 (Expi293); VL = variant III) VH: EVQLVESGGGLVQPGGSLRLSCAASGFTFSPFAMSWVRQAPGKGLEWVAKISPGGSWTYYSDSVTDRFTFSLDTSKSTAYLQMNSLRAEDTAVYYCARQLWGYYALDIWGQGTLVTVSS VL: DIQLTQSPSSLSASVGDRVTITCSASISVSYLYWYQQKPGKAPKLLIYDDSSLASGVPSRFSGSGSGTDFTLTISSLQPEDFATYYCQQWSGYPYTFGQGTKVEIK
0.297 nM	0.000423 s⁻¹	1.43e+06 M⁻¹ s⁻¹	anti-IL-6 antibody, heavy chain T65H, G66D / light chain M32L, M50D, N52S, M88Q (antibody, IgG1, V domains shown, Full IgG1 (Expi293); VL = variant III) VH: EVQLVESGGGLVQPGGSLRLSCAASGFTFSPFAMSWVRQAPGKGLEWVAKISPGGSWTYYSDTVHDRFTFSLDTSKSTAYLQMNSLRAEDTAVYYCARQLWGYYALDIWGQGTLVTVSS VL: DIQLTQSPSSLSASVGDRVTITCSASISVSYLYWYQQKPGKAPKLLIYDDSSLASGVPSRFSGSGSGTDFTLTISSLQPEDFATYYCQQWSGYPYTFGQGTKVEIK
0.465 nM	0.00048 s⁻¹	1.03e+06 M⁻¹ s⁻¹	anti-IL-6 antibody, heavy chain T65D, G66D / light chain M32L, M50D, N52S, M88Q (antibody, IgG1, V domains shown, Full IgG1 (Expi293); VL = variant III) VH: EVQLVESGGGLVQPGGSLRLSCAASGFTFSPFAMSWVRQAPGKGLEWVAKISPGGSWTYYSDTVDDRFTFSLDTSKSTAYLQMNSLRAEDTAVYYCARQLWGYYALDIWGQGTLVTVSS VL: DIQLTQSPSSLSASVGDRVTITCSASISVSYLYWYQQKPGKAPKLLIYDDSSLASGVPSRFSGSGSGTDFTLTISSLQPEDFATYYCQQWSGYPYTFGQGTKVEIK
0.286 nM	0.000449 s⁻¹	1.57e+06 M⁻¹ s⁻¹	anti-IL-6 antibody, heavy chain T63W, G66D / light chain M32L, M50D, N52S, M88Q (antibody, IgG1, V domains shown, Full IgG1 (Expi293); VL = variant III) VH: EVQLVESGGGLVQPGGSLRLSCAASGFTFSPFAMSWVRQAPGKGLEWVAKISPGGSWTYYSDWVTDRFTFSLDTSKSTAYLQMNSLRAEDTAVYYCARQLWGYYALDIWGQGTLVTVSS VL: DIQLTQSPSSLSASVGDRVTITCSASISVSYLYWYQQKPGKAPKLLIYDDSSLASGVPSRFSGSGSGTDFTLTISSLQPEDFATYYCQQWSGYPYTFGQGTKVEIK
0.31 nM	0.000441 s⁻¹	1.42e+06 M⁻¹ s⁻¹	anti-IL-6 antibody, heavy chain T65S, G66D / light chain M32L, M50D, N52S, M88Q (antibody, IgG1, V domains shown, Full IgG1 (Expi293); VL = variant III) VH: EVQLVESGGGLVQPGGSLRLSCAASGFTFSPFAMSWVRQAPGKGLEWVAKISPGGSWTYYSDTVSDRFTFSLDTSKSTAYLQMNSLRAEDTAVYYCARQLWGYYALDIWGQGTLVTVSS VL: DIQLTQSPSSLSASVGDRVTITCSASISVSYLYWYQQKPGKAPKLLIYDDSSLASGVPSRFSGSGSGTDFTLTISSLQPEDFATYYCQQWSGYPYTFGQGTKVEIK
0.356 nM	0.000579 s⁻¹	1.63e+06 M⁻¹ s⁻¹	anti-IL-6 antibody, heavy chain T65K, G66D / light chain M32L, M50D, N52S, M88Q (antibody, IgG1, V domains shown, Full IgG1 (Expi293); VL = variant III) VH: EVQLVESGGGLVQPGGSLRLSCAASGFTFSPFAMSWVRQAPGKGLEWVAKISPGGSWTYYSDTVKDRFTFSLDTSKSTAYLQMNSLRAEDTAVYYCARQLWGYYALDIWGQGTLVTVSS VL: DIQLTQSPSSLSASVGDRVTITCSASISVSYLYWYQQKPGKAPKLLIYDDSSLASGVPSRFSGSGSGTDFTLTISSLQPEDFATYYCQQWSGYPYTFGQGTKVEIK
0.281 nM	0.000551 s⁻¹	1.96e+06 M⁻¹ s⁻¹	anti-IL-6 antibody, heavy chain T65V, G66D / light chain M32L, M50D, N52S, M88Q (antibody, IgG1, V domains shown, Full IgG1 (Expi293); VL = variant III) VH: EVQLVESGGGLVQPGGSLRLSCAASGFTFSPFAMSWVRQAPGKGLEWVAKISPGGSWTYYSDTVVDRFTFSLDTSKSTAYLQMNSLRAEDTAVYYCARQLWGYYALDIWGQGTLVTVSS VL: DIQLTQSPSSLSASVGDRVTITCSASISVSYLYWYQQKPGKAPKLLIYDDSSLASGVPSRFSGSGSGTDFTLTISSLQPEDFATYYCQQWSGYPYTFGQGTKVEIK
0.601 nM	0.00108 s⁻¹	1.79e+06 M⁻¹ s⁻¹	anti-IL-6 antibody, heavy chain T65P, G66D / light chain M32L, M50D, N52S, M88Q (antibody, IgG1, V domains shown, Full IgG1 (Expi293); VL = variant III) VH: EVQLVESGGGLVQPGGSLRLSCAASGFTFSPFAMSWVRQAPGKGLEWVAKISPGGSWTYYSDTVPDRFTFSLDTSKSTAYLQMNSLRAEDTAVYYCARQLWGYYALDIWGQGTLVTVSS VL: DIQLTQSPSSLSASVGDRVTITCSASISVSYLYWYQQKPGKAPKLLIYDDSSLASGVPSRFSGSGSGTDFTLTISSLQPEDFATYYCQQWSGYPYTFGQGTKVEIK
0.279 nM	0.000474 s⁻¹	1.7e+06 M⁻¹ s⁻¹	anti-IL-6 antibody, heavy chain T65E, G66D / light chain M32L, M50D, N52S, M88Q (antibody, IgG1, V domains shown, Full IgG1 (Expi293); VL = variant III) VH: EVQLVESGGGLVQPGGSLRLSCAASGFTFSPFAMSWVRQAPGKGLEWVAKISPGGSWTYYSDTVEDRFTFSLDTSKSTAYLQMNSLRAEDTAVYYCARQLWGYYALDIWGQGTLVTVSS VL: DIQLTQSPSSLSASVGDRVTITCSASISVSYLYWYQQKPGKAPKLLIYDDSSLASGVPSRFSGSGSGTDFTLTISSLQPEDFATYYCQQWSGYPYTFGQGTKVEIK
